Test results reported in PMC9482650, “Quantitative fragmentomics allow affinity mapping of interactomes” (Nature Communications, 2022).

Columns and labels:
Experiment in all cases: holdup assay
Parameters in all cases: key: below the threshold = too weak to quantify, mostly under pKd 3.1 to 4
MAST2, Q6P0Q8 = biological target: MAST2, Q6P0Q8
MAST1, Q9Y2H9 = biological target: MAST1, Q9Y2H9
HTRA2, O43464 = biological target: HTRA2, O43464
AHNAK1, Q09666 = biological target: AHNAK1, Q09666
SCRIB_2, Q14160 = biological target: SCRIB_2, Q14160
SNX27, Q96L92 = biological target: SNX27, Q96L92
Inadl_1, Q8NI35 = biological target: Inadl_1, Q8NI35
SCRIB_1, Q14160 = biological target: SCRIB_1, Q14160
CASK, O14936 = biological target: CASK, O14936
DLG3_3, Q92796 = biological target: T1, DLG3_3, Q92796
T1 sequence (Q92796 374-475, limits assumed, looked up): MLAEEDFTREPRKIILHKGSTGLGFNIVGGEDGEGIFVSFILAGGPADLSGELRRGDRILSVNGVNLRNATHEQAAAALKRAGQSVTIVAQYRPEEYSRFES

PARD3_3, Q8TEW0 = biological target: PARD3_3, Q8TEW0
MAGI2_5, Q86UL8 = biological target: MAGI2_5, Q86UL8
LNX1_1, Q8TBB1 = biological target: LNX1_1, Q8TBB1
MAGI3_2, Q5TCQ9 = biological target: MAGI3_2, Q5TCQ9
SNTG2, Q9NY99 = biological target: T2, SNTG2, Q9NY99
T2 sequence (Q9NY99 68-166, limits assumed, looked up): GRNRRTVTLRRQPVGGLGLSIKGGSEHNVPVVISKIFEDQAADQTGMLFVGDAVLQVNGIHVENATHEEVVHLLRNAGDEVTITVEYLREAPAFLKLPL

TJP1_2, Q07157 = biological target: TJP1_2, Q07157
PDLIM1, O00151 = biological target: PDLIM1, O00151
APBA1_1, Q02410 = biological target: T3, APBA1_1, Q02410
T3 sequence (Q02410 651-752, limits assumed, looked up): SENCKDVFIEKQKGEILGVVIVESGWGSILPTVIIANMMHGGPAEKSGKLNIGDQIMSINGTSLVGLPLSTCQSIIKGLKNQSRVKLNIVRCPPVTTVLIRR

ARHGEF12, Q9NZN5-2 = biological target: ARHGEF12, Q9NZN5-2
LIN7C, Q9NUP9 = biological target: T4, LIN7C, Q9NUP9
T4 sequence (Q9NUP9 88-185, limits assumed, looked up): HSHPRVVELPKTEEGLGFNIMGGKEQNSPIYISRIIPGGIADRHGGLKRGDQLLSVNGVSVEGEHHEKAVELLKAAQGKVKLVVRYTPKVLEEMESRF

GRIP1_2, Q9Y3R0 = biological target: T5, GRIP1_2, Q9Y3R0
T5 sequence (Q9Y3R0 145-248, limits assumed, looked up): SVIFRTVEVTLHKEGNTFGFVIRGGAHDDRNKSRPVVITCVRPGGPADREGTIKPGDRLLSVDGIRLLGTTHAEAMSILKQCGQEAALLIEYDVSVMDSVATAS

GRIP1_7, Q9Y3R0 = biological target: T6, GRIP1_7, Q9Y3R0
T6 sequence (Q9Y3R0 999-1096, limits assumed, looked up): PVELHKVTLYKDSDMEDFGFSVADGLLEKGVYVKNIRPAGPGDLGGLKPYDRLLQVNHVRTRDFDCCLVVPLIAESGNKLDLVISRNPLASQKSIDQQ

Inadl_8, Q8NI35 = biological target: Inadl_8, Q8NI35
MAGI2_3, Q86UL8 = biological target: MAGI2_3, Q86UL8
PTPN3, P26045 = biological target: PTPN3, P26045
NHERF2_2, Q15599 = biological target: NHERF2_2, Q15599
SCRIB_3, Q14160 = biological target: SCRIB_3, Q14160
GORASP1, Q9BQQ3 = biological target: GORASP1, Q9BQQ3
LIN7B, Q9HAP6 = biological target: T7, LIN7B, Q9HAP6
T7 sequence (Q9HAP6 88-185, limits assumed, looked up): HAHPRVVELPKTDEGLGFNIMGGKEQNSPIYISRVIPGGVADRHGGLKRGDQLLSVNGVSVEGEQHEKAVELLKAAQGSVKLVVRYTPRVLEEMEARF

NHERF4_1, Q86UT5-2 = biological target: NHERF4_1, Q86UT5-2
TJP3_3, O95049 = biological target: T8, TJP3_3, O95049
T8 sequence (O95049 375-456, limits assumed, looked up): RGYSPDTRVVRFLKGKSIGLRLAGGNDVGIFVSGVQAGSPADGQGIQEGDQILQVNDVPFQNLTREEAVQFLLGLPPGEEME

[1] = plain residues with an end cap or a label only (N-terminal biotin on a linker: ttds)
[2] = plain residues with an end cap or a label only (N-terminal biotin on a linker: ahx)

Chain of MAGI2_3, Q86UL8 (Q86UL8 600-682): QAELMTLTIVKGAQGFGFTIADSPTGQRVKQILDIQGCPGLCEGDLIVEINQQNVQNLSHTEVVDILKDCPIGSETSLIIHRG
Chain of AHNAK1, Q09666 (Q09666 4-100): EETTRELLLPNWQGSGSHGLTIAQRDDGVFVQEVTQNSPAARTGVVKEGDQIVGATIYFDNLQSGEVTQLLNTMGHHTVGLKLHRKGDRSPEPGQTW
Chain of TJP1_2, Q07157 (Q07157 181-274): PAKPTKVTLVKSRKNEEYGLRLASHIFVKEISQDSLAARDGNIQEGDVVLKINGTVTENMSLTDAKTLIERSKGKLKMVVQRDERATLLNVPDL
Chain of PTPN3, P26045 (P26045 505-587): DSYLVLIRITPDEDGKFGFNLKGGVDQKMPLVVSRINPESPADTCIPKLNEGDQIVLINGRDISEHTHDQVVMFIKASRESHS
Chain of SCRIB_2, Q14160 (Q14160 857-960): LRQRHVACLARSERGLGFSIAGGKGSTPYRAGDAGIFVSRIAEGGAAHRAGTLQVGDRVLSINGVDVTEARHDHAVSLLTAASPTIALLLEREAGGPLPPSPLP
Chain of MAST2, Q6P0Q8 (Q6P0Q8 1099-1202): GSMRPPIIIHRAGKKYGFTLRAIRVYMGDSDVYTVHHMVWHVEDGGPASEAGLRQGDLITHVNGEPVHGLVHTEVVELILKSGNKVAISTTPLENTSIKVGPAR
Chain of HTRA2, O43464 (O43464 355-458): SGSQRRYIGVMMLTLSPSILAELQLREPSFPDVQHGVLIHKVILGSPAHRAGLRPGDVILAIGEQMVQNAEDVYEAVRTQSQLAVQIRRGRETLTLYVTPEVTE
Chain of PDLIM1, O00151 (O00151 1-87): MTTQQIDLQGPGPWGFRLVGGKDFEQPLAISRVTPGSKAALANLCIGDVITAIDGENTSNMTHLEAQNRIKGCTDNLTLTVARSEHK
Chain of MAST1, Q9Y2H9 (Q9Y2H9 962-1065): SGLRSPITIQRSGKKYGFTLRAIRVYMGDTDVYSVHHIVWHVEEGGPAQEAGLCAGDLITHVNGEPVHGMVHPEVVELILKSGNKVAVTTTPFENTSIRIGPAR
Chain of LNX1_1, Q8TBB1 (Q8TBB1 261-371): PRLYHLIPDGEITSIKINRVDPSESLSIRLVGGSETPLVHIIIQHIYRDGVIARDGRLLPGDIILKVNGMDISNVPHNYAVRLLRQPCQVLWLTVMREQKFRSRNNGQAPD
Chain of NHERF4_1, Q86UT5-2 (Q86UT5 other isoform, or with tags, fused parts or gaps): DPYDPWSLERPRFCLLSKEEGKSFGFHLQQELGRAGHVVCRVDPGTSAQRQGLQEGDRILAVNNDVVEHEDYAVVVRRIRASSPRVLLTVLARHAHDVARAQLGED
Chain of PARD3_3, Q8TEW0 (Q8TEW0 582-685): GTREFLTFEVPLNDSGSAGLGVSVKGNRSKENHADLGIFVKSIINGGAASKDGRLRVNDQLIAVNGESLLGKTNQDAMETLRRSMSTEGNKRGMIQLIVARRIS
Chain of Inadl_1, Q8NI35 (Q8NI35 113-229): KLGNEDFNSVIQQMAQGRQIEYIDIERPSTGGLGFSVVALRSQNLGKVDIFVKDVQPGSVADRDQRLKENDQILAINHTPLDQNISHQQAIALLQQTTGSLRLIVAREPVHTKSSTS
Chain of CASK, O14936 (O14936 487-570): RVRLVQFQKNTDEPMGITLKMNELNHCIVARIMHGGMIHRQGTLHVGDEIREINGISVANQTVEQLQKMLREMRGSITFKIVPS
Chain of MAGI2_5, Q86UL8 (Q86UL8 915-1017): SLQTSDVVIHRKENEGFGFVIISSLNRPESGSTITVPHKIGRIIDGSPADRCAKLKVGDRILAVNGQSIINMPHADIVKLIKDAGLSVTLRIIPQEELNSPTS
Chain of NHERF2_2, Q15599 (Q15599 142-238): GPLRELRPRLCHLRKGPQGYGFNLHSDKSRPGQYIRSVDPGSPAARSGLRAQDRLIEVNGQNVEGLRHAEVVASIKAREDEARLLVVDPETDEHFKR
Chain of ARHGEF12, Q9NZN5-2 (Q9NZN5 other isoform, or with tags, fused parts or gaps): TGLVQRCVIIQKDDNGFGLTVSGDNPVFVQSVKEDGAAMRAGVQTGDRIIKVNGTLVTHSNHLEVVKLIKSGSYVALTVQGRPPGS
Chain of GORASP1, Q9BQQ3 (Q9BQQ3 1-208): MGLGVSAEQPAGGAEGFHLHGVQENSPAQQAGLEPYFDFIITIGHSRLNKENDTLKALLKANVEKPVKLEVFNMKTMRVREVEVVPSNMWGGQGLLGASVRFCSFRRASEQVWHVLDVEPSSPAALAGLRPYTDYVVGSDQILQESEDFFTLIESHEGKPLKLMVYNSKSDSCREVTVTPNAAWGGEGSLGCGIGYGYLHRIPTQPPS
Chain of Inadl_8, Q8NI35 (Q8NI35 1425-1530): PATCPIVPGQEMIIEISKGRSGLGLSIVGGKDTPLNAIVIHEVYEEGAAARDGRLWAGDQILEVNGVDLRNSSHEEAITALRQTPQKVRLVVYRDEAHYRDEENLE
Chain of SCRIB_1, Q14160 (Q14160 718-814): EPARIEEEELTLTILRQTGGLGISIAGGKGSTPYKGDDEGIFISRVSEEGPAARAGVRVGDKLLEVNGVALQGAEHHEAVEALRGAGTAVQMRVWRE
Chain of SCRIB_3, Q14160 (Q14160 999-1103): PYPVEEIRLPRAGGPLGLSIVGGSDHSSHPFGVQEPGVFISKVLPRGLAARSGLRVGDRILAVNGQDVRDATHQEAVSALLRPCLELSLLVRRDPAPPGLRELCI
Chain of MAGI3_2, Q5TCQ9 (Q5TCQ9 398-503): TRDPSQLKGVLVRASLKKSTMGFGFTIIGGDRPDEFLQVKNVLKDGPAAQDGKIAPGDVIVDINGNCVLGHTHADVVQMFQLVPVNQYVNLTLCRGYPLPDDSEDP

CLDTSRETDL [KCNA5, P22460]
pKd (MAST2, Q6P0Q8; [1]): 5.52 | pKd (MAST1, Q9Y2H9; [1]): 4.91 | pKd (HTRA2, O43464; [1]): below the threshold | pKd (AHNAK1, Q09666; [1]): below the threshold | pKd (SCRIB_2, Q14160; [1]): 4.35 | pKd (SNX27, Q96L92; [1]): 4.44 | pKd (Inadl_1, Q8NI35; [1]): below the threshold | pKd (SCRIB_1, Q14160; [1]): 4.76 | pKd (CASK, O14936; [1]): below the threshold | pKd (DLG3_3, Q92796; [1]): below the threshold | pKd (PARD3_3, Q8TEW0; [1]): 3.48 | pKd (MAGI2_5, Q86UL8; [1]): below the threshold | pKd (LNX1_1, Q8TBB1; [1]): 3.91 | pKd (MAGI3_2, Q5TCQ9; [1]): below the threshold | pKd (SNTG2, Q9NY99; [1]): 4.45 | pKd (TJP1_2, Q07157; [1]): below the threshold | pKd (PDLIM1, O00151; [1]): 4.29 | pKd (APBA1_1, Q02410; [1]): below the threshold | pKd (ARHGEF12, Q9NZN5-2; [1]): 4.32 | pKd (LIN7C, Q9NUP9; [1]): 3.74 | pKd (GRIP1_2, Q9Y3R0; [1]): 3.65 | pKd (GRIP1_7, Q9Y3R0; [1]): below the threshold | pKd (Inadl_8, Q8NI35; [1]): below the threshold | pKd (MAGI2_3, Q86UL8; [1]): below the threshold | pKd (PTPN3, P26045; [1]): 4.92 | pKd (NHERF2_2, Q15599; [1]): 4.49 | pKd (SCRIB_3, Q14160; [1]): 5.23 | pKd (GORASP1, Q9BQQ3; [1]): below the threshold | pKd (LIN7B, Q9HAP6; [1]): below the threshold | pKd (NHERF4_1, Q86UT5-2; [1]): below the threshold | pKd (TJP3_3, O95049; [1]): below the threshold

EDEDEQVSAV [RAPGEF2, Q9Y4G8]
pKd (MAST2, Q6P0Q8; [2]): 4.92 | pKd (MAST1, Q9Y2H9; [2]): 4.22 | pKd (HTRA2, O43464; [2]): below the threshold | pKd (AHNAK1, Q09666; [2]): below the threshold | pKd (SCRIB_2, Q14160; [2]): below the threshold | pKd (SNX27, Q96L92; [2]): 5.32 | pKd (Inadl_1, Q8NI35; [2]): below the threshold | pKd (SCRIB_1, Q14160; [2]): below the threshold | pKd (CASK, O14936; [2]): below the threshold | pKd (DLG3_3, Q92796; [2]): below the threshold | pKd (PARD3_3, Q8TEW0; [2]): 3.91 | pKd (MAGI2_5, Q86UL8; [2]): 4.46 | pKd (LNX1_1, Q8TBB1; [2]): below the threshold | pKd (MAGI3_2, Q5TCQ9; [2]): below the threshold | pKd (SNTG2, Q9NY99; [2]): below the threshold | pKd (TJP1_2, Q07157; [2]): below the threshold | pKd (PDLIM1, O00151; [2]): below the threshold | pKd (APBA1_1, Q02410; [2]): below the threshold | pKd (ARHGEF12, Q9NZN5-2; [2]): 3.71 | pKd (LIN7C, Q9NUP9; [2]): below the threshold | pKd (GRIP1_2, Q9Y3R0; [2]): below the threshold | pKd (GRIP1_7, Q9Y3R0; [2]): below the threshold | pKd (Inadl_8, Q8NI35; [2]): 3.86 | pKd (MAGI2_3, Q86UL8; [2]): 4.23 | pKd (PTPN3, P26045; [2]): 4.39 | pKd (NHERF2_2, Q15599; [2]): 3.68 | pKd (SCRIB_3, Q14160; [2]): below the threshold | pKd (GORASP1, Q9BQQ3; [2]): below the threshold | pKd (LIN7B, Q9HAP6; [2]): below the threshold | pKd (NHERF4_1, Q86UT5-2; [2]): below the threshold | pKd (TJP3_3, O95049; [2]): below the threshold

KKNKDKEYYV [NRXN1, Q9ULB1]
pKd (MAST2, Q6P0Q8; [2]): below the threshold | pKd (MAST1, Q9Y2H9; [2]): below the threshold | pKd (HTRA2, O43464; [2]): below the threshold | pKd (AHNAK1, Q09666; [2]): below the threshold | pKd (SCRIB_2, Q14160; [2]): below the threshold | pKd (SNX27, Q96L92; [2]): below the threshold | pKd (Inadl_1, Q8NI35; [2]): below the threshold | pKd (SCRIB_1, Q14160; [2]): below the threshold | pKd (CASK, O14936; [2]): below the threshold | pKd (DLG3_3, Q92796; [2]): below the threshold | pKd (PARD3_3, Q8TEW0; [2]): 4.29 | pKd (MAGI2_5, Q86UL8; [2]): 3.57 | pKd (LNX1_1, Q8TBB1; [2]): below the threshold | pKd (MAGI3_2, Q5TCQ9; [2]): 4.6 | pKd (SNTG2, Q9NY99; [2]): below the threshold | pKd (TJP1_2, Q07157; [2]): below the threshold | pKd (PDLIM1, O00151; [2]): below the threshold | pKd (APBA1_1, Q02410; [2]): below the threshold | pKd (ARHGEF12, Q9NZN5-2; [2]): below the threshold | pKd (LIN7C, Q9NUP9; [2]): below the threshold | pKd (GRIP1_2, Q9Y3R0; [2]): below the threshold | pKd (GRIP1_7, Q9Y3R0; [2]): 4.09 | pKd (Inadl_8, Q8NI35; [2]): below the threshold | pKd (MAGI2_3, Q86UL8; [2]): below the threshold | pKd (PTPN3, P26045; [2]): below the threshold | pKd (NHERF2_2, Q15599; [2]): below the threshold | pKd (SCRIB_3, Q14160; [2]): below the threshold | pKd (GORASP1, Q9BQQ3; [2]): 3.8 | pKd (LIN7B, Q9HAP6; [2]): below the threshold | pKd (NHERF4_1, Q86UT5-2; [2]): below the threshold | pKd (TJP3_3, O95049; [2]): below the threshold
